The supplement of paper PMC7877785
± gives the uncertainty stated by the source.

Experiment: self-splicing fitness, log relative to wild type (ln ratio); higher = more splicing; Tetrahymena group I intron in knt gene, E. coli kanamycin selection, DiMSum; sequences stand for … in CUCUCU…GGAGGGAAAAGUUAUCAGGCAUGCACCUGGUAGCUAGUCUUUAAACCAAUAGAUUGCAUCGGUUUAAAAGGCAAGACCGUCAAAUUGCGGGAAAGGGGUCAACAGCCGUUCAGUACCAAGUCUCAGGGGAAACUUUGAGAUGGCCUUGCAAAGGGUAUGGUAAUAAGCUGACGGACAUGGUCCUAACCACGCAGCCAAGUCCUAAGUCAACAGAUCUUCUGUUGAUAUGGAUGCAGUUCACAGACUAAAUGUCGGUCGGGGAAGAUGUAUUCUUCUCAUAAGAUAUAGUCGGACCUCUCCUUAAUGGGAGCUAGCGGAUGAAGUGAUGCAACACUGGAGCCGCUGGGAACUAAUUUGUAUGCGAAAGUAUAUUGAUUAGUUUUGGAGUACUCGUGGUCG
How it was run: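 Pooled colonies went to amplicon sequencing on an Illumina HiSeq 2500 after six replicate transformations. The plates were LB agar with 100 μg/mL carbenicillin, 50 μM IPTG and 0.2% rhamnose, with or without 25 μg/mL kanamycin, incubated overnight at 37°C or 30°C. The E. coli BL21(DE3) library had all eight P1ex-region intron nucleotides randomised, the intron placed in the knt kanamycin-resistance gene on pET-22b(+). DiMSum fitness is the error-weighted combination of replicate fold changes, kanamycin against none, normalised to wild type.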

Row | Sequence | self-splicing fitness (ln) (30 °C) | self-splicing fitness (ln) (37 °C)
1 | AGUAAGCAAUAUUACGCGUC | -3.37 ± 0.19 | -2.2 ± 0.17
2 | AGUAAGCAAUAUUACGCUCA | -0.405 ± 0.12 | -0.595 ± 0.11
3 | AGUAAGCAAUAUUACGCUCG | -0.783 ± 0.17 | -0.584 ± 0.21
4 | AGUAAGCAAUAUUACGCUCU | -1.96 ± 0.2 | -1.59 ± 0.27
5 | AGUAAGCAAUAUUACGCUGC | -2.97 ± 0.29 | –
6 | AGUAAGCAAUAUUACGCUGU | -2.78 ± 0.22 | -1.88 ± 0.3
7 | AGUAAGCAAUAUUACGGAAC | -1.82 ± 0.25 | -2.6 ± 0.27
8 | AGUAAGCAAUAUUACGGACA | -0.314 ± 0.091 | -0.393 ± 0.11
9 | AGUAAGCAAUAUUACGGCAG | -2.1 ± 0.16 | -1.53 ± 0.2
10 | AGUAAGCAAUAUUACGGCCG | -0.888 ± 0.11 | -0.63 ± 0.18
11 | AGUAAGCAAUAUUACGGGAU | -3.01 ± 0.25 | -1.12 ± 0.15
12 | AGUAAGCAAUAUUACGGGGG | -3.08 ± 0.22 | -2.87 ± 0.29
13 | AGUAAGCAAUAUUACGGUGG | -3.68 ± 0.2 | -1.66 ± 0.16
14 | AGUAAGCAAUAUUACGUAGC | -4.37 ± 0.42 | -3.1 ± 0.47
15 | AGUAAGCAAUAUUACGUCCC | -0.303 ± 0.15 | 0.019 ± 0.18
16 | AGUAAGCAAUAUUACGUCGG | -3.61 ± 0.35 | -1.8 ± 0.29
17 | AGUCAGCAAUAUUACGAACC | -0.519 ± 0.15 | -0.0581 ± 0.16
18 | AGUCAGCAAUAUUACGAACG | 0.155 ± 0.087 | 0.717 ± 0.15
19 | AGUCAGCAAUAUUACGAAUC | -0.727 ± 0.13 | -0.18 ± 0.19
20 | AGUCAGCAAUAUUACGACCU | -0.358 ± 0.081 | 0.103 ± 0.11
21 | AGUCAGCAAUAUUACGAUAA | -0.337 ± 0.087 | -0.697 ± 0.1
22 | AGUCAGCAAUAUUACGAUAC | -1.69 ± 0.12 | -0.336 ± 0.11
23 | AGUCAGCAAUAUUACGAUCG | -0.601 ± 0.091 | 0.358 ± 0.14
24 | AGUCAGCAAUAUUACGAUUU | -0.399 ± 0.064 | -0.286 ± 0.11
25 | AGUCAGCAAUAUUACGCAAU | -0.997 ± 0.075 | 0.245 ± 0.096

Row | Sequence | self-splicing fitness (ln) (30 °C) | self-splicing fitness (ln) (37 °C)
26 | AGUCAGCAAUAUUACGCACU | -2.19 ± 0.12 | -1.42 ± 0.13
27 | AGUCAGCAAUAUUACGCAGC | -2.28 ± 0.15 | -1.22 ± 0.16
28 | AGUCAGCAAUAUUACGCCAG | -3.55 ± 0.34 | -2.47 ± 0.31
29 | AGUCAGCAAUAUUACGCCCA | -1.19 ± 0.13 | 0.479 ± 0.18
30 | AGUCAGCAAUAUUACGCCGA | -1.92 ± 0.25 | -1.92 ± 0.3
31 | AGUCAGCAAUAUUACGCGUG | -1.28 ± 0.097 | -0.66 ± 0.11
32 | AGUCAGCAAUAUUACGCGUU | 0.159 ± 0.077 | 0.0714 ± 0.085
33 | AGUCAGCAAUAUUACGCUAG | -3.33 ± 0.18 | -2.64 ± 0.23
34 | AGUCAGCAAUAUUACGCUUG | -2.79 ± 0.15 | -0.514 ± 0.15
35 | AGUCAGCAAUAUUACGGCAG | -0.629 ± 0.11 | -0.145 ± 0.15
36 | AGUCAGCAAUAUUACGGCUC | -3.84 ± 0.43 | -1.54 ± 0.45
37 | AGUCAGCAAUAUUACGGGAC | -2.45 ± 0.18 | -2.16 ± 0.24
38 | AGUCAGCAAUAUUACGGGCA | -0.79 ± 0.095 | -0.281 ± 0.11
39 | AGUCAGCAAUAUUACGGGCU | -2.43 ± 0.19 | -3.12 ± 0.43
40 | AGUCAGCAAUAUUACGGGUU | -0.799 ± 0.077 | -0.628 ± 0.086
41 | AGUCAGCAAUAUUACGGUCA | -0.726 ± 0.11 | -0.323 ± 0.1
42 | AGUCAGCAAUAUUACGUAAC | -1.88 ± 0.099 | -1.37 ± 0.11
43 | AGUCAGCAAUAUUACGUAAU | -1.16 ± 0.062 | -0.387 ± 0.088
44 | AGUCAGCAAUAUUACGUCAA | -2.24 ± 0.12 | -1.09 ± 0.1
45 | AGUCAGCAAUAUUACGUCAU | -0.181 ± 0.072 | -0.133 ± 0.09
46 | AGUCAGCAAUAUUACGUCGC | -1.65 ± 0.13 | -1.14 ± 0.19
47 | AGUCAGCAAUAUUACGUCGG | -0.874 ± 0.086 | -1.23 ± 0.11
48 | AGUCAGCAAUAUUACGUGUG | -2.26 ± 0.099 | -1.57 ± 0.11
49 | AGUGAGCAAUAUUACGAAAU | – | -2.07 ± 0.39
50 | AGUGAGCAAUAUUACGAAGC | -4.89 ± 0.46 | -1.55 ± 0.33

Row | Sequence | self-splicing fitness (ln) (30 °C) | self-splicing fitness (ln) (37 °C)
51 | AGUGAGCAAUAUUACGAGAU | -3.9 ± 0.23 | -1.49 ± 0.19
52 | AGUGAGCAAUAUUACGAGGU | -3.63 ± 0.31 | –
53 | AGUGAGCAAUAUUACGAUCC | -0.375 ± 0.25 | -0.193 ± 0.22
54 | AGUGAGCAAUAUUACGAUCU | -1.7 ± 0.14 | -1.13 ± 0.15
55 | AGUGAGCAAUAUUACGAUUG | -3.59 ± 0.42 | -2.77 ± 0.38
56 | AGUGAGCAAUAUUACGCAUC | -3.32 ± 0.28 | -0.505 ± 0.26
57 | AGUGAGCAAUAUUACGCAUG | -3.22 ± 0.29 | -3.25 ± 0.43
58 | AGUGAGCAAUAUUACGCCGG | -2.67 ± 0.26 | -1.81 ± 0.38
59 | AGUGAGCAAUAUUACGCGAC | -1.74 ± 0.32 | -1.46 ± 0.31
60 | AGUGAGCAAUAUUACGCUCC | -1.69 ± 0.45 | –
61 | AGUGAGCAAUAUUACGGACC | -0.918 ± 0.22 | -0.539 ± 0.33
62 | AGUGAGCAAUAUUACGGAUA | -2.82 ± 0.28 | -0.678 ± 0.35
63 | AGUGAGCAAUAUUACGGAUC | -2.42 ± 0.25 | -1.25 ± 0.34
64 | AGUGAGCAAUAUUACGGAUG | -3.2 ± 0.24 | -3.06 ± 0.3
65 | AGUGAGCAAUAUUACGGCGC | -0.869 ± 0.35 | -0.599 ± 0.2
66 | AGUGAGCAAUAUUACGGCUG | -2.19 ± 0.12 | -0.36 ± 0.16
67 | AGUGAGCAAUAUUACGGGAA | -2.94 ± 0.29 | –
68 | AGUGAGCAAUAUUACGGGAU | -3.44 ± 0.26 | -1.7 ± 0.29
69 | AGUGAGCAAUAUUACGGGCU | -4.57 ± 0.39 | -2.72 ± 0.3
70 | AGUGAGCAAUAUUACGUAAG | -3.1 ± 0.43 | -2.48 ± 0.41
71 | AGUGAGCAAUAUUACGUAGG | -4.29 ± 0.46 | –
72 | AGUGAGCAAUAUUACGUAGU | -4.14 ± 0.26 | -2.82 ± 0.26
73 | AGUGAGCAAUAUUACGUAUG | – | -2.56 ± 0.32
74 | AGUGAGCAAUAUUACGUCAA | -0.971 ± 0.2 | -2.79 ± 0.36
75 | AGUGAGCAAUAUUACGUCAU | -1.29 ± 0.14 | -2.29 ± 0.22

Row | Sequence | self-splicing fitness (ln) (30 °C) | self-splicing fitness (ln) (37 °C)
76 | AGUGAGCAAUAUUACGUCCU | 0.0407 ± 0.17 | 0.233 ± 0.18
77 | AGUGAGCAAUAUUACGUGGC | – | -1.94 ± 0.33
78 | AGUGAGCAAUAUUACGUUCA | -3.1 ± 0.38 | -2.41 ± 0.37
79 | AGUGAGCAAUAUUACGUUCU | -1.78 ± 0.15 | -1.57 ± 0.14
80 | AGUUAGCAAUAUUACGAACC | -1 ± 0.15 | -0.401 ± 0.17
81 | AGUUAGCAAUAUUACGACGU | 0.261 ± 0.07 | 0.647 ± 0.083
82 | AGUUAGCAAUAUUACGACUC | -2.36 ± 0.32 | -1.83 ± 0.38
83 | AGUUAGCAAUAUUACGAGGU | -3.43 ± 0.16 | -1.55 ± 0.17
84 | AGUUAGCAAUAUUACGAGUA | -2.73 ± 0.17 | -1.64 ± 0.13
85 | AGUUAGCAAUAUUACGCCGG | -2.98 ± 0.34 | -2.26 ± 0.39
86 | AGUUAGCAAUAUUACGCGUC | -3.11 ± 0.48 | -0.621 ± 0.33
87 | AGUUAGCAAUAUUACGCGUU | -1.32 ± 0.12 | -0.816 ± 0.15
88 | AGUUAGCAAUAUUACGGAGA | -1.99 ± 0.27 | -2.86 ± 0.48
89 | AGUUAGCAAUAUUACGGCUC | -3.53 ± 0.26 | -2.46 ± 0.34
90 | AGUUAGCAAUAUUACGGGGU | -3.76 ± 0.46 | -2.61 ± 0.33
91 | AGUUAGCAAUAUUACGGUAG | -3.77 ± 0.3 | -2.11 ± 0.34
92 | AGUUAGCAAUAUUACGGUGA | -1.43 ± 0.13 | -1.13 ± 0.21
93 | AGUUAGCAAUAUUACGGUUA | -1.54 ± 0.12 | -0.607 ± 0.087
94 | AGUUAGCAAUAUUACGUAAG | -2.42 ± 0.21 | -0.816 ± 0.27
95 | AGUUAGCAAUAUUACGUAGU | -2.77 ± 0.17 | -1.94 ± 0.17
96 | AGUUAGCAAUAUUACGUAUU | -2.02 ± 0.1 | -1.04 ± 0.11
97 | AGUUAGCAAUAUUACGUCCA | -0.989 ± 0.16 | -0.0648 ± 0.18
